Patent US20180296691A1 (Pfizer, published 2018)

Legend:
Experiment in all cases: SPR (BIAcore 2000), Eph receptor captured via anti-human antibody capture kit, monomeric human Ephrin-A4 12-400 nM as analyte, steady state affinity fit
[1] = target: T1, recombinant EphA6 receptor (commercially available) (UniProt Q9UF33 23-550, limits assumed)
T1 sequence (looked up): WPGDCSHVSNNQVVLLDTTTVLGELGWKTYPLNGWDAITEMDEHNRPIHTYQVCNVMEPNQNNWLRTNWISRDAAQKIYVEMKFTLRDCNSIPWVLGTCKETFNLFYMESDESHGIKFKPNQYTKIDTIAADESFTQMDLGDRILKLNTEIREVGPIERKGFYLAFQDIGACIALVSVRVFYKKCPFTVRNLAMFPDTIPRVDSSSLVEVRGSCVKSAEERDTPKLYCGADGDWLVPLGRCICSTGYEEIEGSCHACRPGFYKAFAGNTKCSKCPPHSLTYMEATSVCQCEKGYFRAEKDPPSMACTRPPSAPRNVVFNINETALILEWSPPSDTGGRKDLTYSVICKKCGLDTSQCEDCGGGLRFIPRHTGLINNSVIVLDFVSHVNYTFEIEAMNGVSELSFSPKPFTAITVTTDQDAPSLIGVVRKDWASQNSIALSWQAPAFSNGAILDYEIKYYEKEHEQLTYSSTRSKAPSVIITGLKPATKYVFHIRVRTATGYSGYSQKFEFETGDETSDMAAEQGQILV
Description: (§1) An anti-human antibody capture kit was used to immobilize recombinant Eph receptors on a CM5 biosensor chip. Prior to each antigen injection cycle, Eph receptors at the concentration of 2 μg/mL were captured on the surface with a contact time of 2 minutes and a flow rate of 5 μL/min. The captured antibody loading from baseline was constant at 150-260 response units. […] Following each cycle, the anti-human capture surface was regenerated with 30 seconds contact time of 3M MgCl₂ at 10 μL/min.
(§2) Biacore data was processed by initially calculating an average of the response at equilibrium (Req). The Req was then plotted versus concentration (M) and the steady state affinity fit was used to calculate the affinity and theoretical Rmax. In all cases, at least 5 different analyte concentrations were used to make this calculation. All data analysis steps were completed in BiaEvaluation Software 3.1 (GE Healthcare).

[2] = target: T2, recombinant EphB2 receptor (commercially available) (UniProt P29323 19-543, limits assumed)
T2 sequence (looked up): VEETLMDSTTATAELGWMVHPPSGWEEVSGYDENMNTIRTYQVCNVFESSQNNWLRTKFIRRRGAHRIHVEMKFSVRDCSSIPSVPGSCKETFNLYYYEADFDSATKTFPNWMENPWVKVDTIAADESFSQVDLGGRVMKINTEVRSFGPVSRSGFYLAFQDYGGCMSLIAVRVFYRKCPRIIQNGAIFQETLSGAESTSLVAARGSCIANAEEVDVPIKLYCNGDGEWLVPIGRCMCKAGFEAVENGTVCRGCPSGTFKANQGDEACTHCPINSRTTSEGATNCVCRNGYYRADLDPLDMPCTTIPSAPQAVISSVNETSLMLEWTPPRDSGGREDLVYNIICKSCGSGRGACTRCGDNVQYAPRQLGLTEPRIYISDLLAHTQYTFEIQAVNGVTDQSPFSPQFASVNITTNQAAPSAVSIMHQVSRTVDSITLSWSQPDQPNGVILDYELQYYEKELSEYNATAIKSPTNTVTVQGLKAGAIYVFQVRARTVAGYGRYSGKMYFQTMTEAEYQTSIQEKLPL
Description: as §1, §2

[3] = target: T3, recombinant EphA10 receptor (commercially available) (UniProt Q5JZY3 34-565, limits assumed)
T3 sequence (looked up): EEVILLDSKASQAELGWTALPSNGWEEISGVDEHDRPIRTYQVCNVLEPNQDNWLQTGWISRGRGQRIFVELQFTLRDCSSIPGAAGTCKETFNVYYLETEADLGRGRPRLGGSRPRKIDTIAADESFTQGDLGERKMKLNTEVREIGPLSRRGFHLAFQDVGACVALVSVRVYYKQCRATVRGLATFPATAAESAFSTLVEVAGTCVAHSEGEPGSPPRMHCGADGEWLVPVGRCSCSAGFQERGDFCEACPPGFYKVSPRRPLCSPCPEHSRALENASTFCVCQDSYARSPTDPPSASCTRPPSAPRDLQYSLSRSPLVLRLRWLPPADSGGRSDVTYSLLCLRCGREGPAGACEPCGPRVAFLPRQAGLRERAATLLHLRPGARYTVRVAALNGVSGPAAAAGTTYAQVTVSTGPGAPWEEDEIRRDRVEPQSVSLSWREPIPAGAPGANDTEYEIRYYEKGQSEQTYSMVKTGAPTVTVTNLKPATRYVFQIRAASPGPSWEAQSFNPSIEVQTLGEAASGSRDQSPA
Description: as §1, §2

[4] = target: recombinant EphA2 receptor (commercially available) (UniProt P29317 25-534, limits assumed)
Description: as §1, §2

[5] = target: recombinant EphA4 receptor (commercially available) (UniProt P54764 20-547, limits assumed)
Description: as §1, §2

[6] = target: T4, recombinant EphA3 receptor (commercially available) (UniProt P29320 21-541, limits assumed)
T4 sequence (looked up): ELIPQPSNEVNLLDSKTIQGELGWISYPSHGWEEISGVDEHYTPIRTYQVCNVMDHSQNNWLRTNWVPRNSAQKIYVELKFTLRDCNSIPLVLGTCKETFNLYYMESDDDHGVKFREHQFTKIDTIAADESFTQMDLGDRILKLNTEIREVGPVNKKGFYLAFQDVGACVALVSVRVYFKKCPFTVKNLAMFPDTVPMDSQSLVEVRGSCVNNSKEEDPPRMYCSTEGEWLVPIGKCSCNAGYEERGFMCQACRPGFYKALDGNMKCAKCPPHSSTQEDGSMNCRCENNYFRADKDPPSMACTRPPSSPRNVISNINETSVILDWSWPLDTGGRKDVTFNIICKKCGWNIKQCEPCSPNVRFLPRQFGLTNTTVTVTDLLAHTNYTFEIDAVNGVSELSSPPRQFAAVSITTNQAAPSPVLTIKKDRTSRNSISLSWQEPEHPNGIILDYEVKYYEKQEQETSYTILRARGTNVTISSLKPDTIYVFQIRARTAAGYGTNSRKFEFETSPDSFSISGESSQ
Description: as §1, §2

[7] = target: T5, recombinant EphA7 receptor (commercially available) (UniProt Q15375 28-555, limits assumed)
T5 sequence (looked up): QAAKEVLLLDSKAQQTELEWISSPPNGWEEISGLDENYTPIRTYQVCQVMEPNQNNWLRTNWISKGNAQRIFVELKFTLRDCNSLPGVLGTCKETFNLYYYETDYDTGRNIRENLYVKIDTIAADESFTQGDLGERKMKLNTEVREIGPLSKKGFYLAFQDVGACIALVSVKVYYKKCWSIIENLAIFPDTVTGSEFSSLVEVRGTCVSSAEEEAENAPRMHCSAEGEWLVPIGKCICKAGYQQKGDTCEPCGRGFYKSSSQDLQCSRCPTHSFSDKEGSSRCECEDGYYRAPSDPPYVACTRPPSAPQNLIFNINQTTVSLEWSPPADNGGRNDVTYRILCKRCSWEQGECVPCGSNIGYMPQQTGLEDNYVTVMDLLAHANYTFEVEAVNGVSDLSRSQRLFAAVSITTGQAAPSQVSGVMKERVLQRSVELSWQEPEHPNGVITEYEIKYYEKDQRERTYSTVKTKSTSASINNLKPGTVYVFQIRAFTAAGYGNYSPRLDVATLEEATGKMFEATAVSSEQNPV
Description: as §1, §2

recombinant EphA2 receptor (commercially available), sequence (P29317 25-534 limits assumed): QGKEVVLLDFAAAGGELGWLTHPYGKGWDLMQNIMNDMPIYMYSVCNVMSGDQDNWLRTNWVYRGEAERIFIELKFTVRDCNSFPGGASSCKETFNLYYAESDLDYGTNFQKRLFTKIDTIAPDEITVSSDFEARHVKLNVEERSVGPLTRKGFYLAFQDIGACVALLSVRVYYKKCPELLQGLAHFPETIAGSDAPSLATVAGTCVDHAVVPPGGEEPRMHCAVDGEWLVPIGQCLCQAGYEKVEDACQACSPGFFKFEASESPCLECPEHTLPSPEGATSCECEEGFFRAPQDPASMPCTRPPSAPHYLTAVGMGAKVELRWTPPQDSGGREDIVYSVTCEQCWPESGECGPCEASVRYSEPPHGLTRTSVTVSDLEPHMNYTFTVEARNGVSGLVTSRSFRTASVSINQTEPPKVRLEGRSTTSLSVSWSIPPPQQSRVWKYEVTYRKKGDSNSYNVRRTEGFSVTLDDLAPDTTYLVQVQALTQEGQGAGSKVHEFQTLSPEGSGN
recombinant EphA4 receptor (commercially available), sequence (P54764 20-547 limits assumed): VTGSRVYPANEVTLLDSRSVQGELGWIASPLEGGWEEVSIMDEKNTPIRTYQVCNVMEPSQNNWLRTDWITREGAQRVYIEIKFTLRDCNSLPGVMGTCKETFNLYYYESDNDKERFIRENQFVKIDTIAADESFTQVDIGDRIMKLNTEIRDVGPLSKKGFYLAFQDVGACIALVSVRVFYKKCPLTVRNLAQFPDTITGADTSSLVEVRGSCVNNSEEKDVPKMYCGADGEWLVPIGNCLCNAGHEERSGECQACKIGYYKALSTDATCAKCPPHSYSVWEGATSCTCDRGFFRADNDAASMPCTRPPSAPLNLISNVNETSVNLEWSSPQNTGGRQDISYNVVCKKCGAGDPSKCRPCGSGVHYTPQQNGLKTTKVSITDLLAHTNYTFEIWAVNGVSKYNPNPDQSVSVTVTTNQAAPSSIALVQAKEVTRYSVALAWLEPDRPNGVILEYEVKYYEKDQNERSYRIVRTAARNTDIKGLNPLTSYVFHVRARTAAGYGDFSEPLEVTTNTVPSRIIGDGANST

Kd [1]: 82 nM | Kd [2]: 135 nM | Kd [3]: 431 nM | Kd [4]: 31 nM | Kd [5]: 122 nM | Kd [6]: 77 nM | Kd [7]: 86 nM
B1: monomeric human Ephrin-A4 (ligand)
chain: LRHVVYWNSSNPRLLRGDAVVELGLNDYLDIVCPHYEGPGPPEGPETFALYMVDWPGYESCQAEGPRAYKRWVCSLPFGHVQFSEKIQRFTPFSLGFEFLPGETYYYISVPTPESSGQCLRLQVSVCCKERKSESAHPVGSPGES
